T1: 人DLL3蛋白(His标签) (human, UniProt Q9NYJ7 27-479)
T1 construct: Bought protein (ACRO); also called 重组人DLL3; human DLL3 protein (His tag); not shown: His tag
T1 sequence (looked up): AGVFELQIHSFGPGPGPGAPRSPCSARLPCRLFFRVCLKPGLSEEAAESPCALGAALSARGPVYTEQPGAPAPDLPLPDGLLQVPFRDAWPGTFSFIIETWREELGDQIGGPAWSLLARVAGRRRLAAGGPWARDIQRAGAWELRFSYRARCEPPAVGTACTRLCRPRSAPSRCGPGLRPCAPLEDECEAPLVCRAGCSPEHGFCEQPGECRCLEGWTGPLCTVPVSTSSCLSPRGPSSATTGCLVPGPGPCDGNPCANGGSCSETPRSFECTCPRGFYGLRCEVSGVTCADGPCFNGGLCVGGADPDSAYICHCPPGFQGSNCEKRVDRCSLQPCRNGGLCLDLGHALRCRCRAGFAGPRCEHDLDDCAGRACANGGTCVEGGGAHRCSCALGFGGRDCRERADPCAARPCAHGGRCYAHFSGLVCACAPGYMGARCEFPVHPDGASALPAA

T2: 人CD3蛋白 (human)
T2 chain: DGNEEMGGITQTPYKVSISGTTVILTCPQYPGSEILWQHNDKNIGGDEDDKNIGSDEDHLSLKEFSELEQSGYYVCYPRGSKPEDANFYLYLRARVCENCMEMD

T3: 效应细胞的CD3抗原 (CD3 on Jurkat-NFAT-CD3 cells and human T cells) (human)
T3 chain: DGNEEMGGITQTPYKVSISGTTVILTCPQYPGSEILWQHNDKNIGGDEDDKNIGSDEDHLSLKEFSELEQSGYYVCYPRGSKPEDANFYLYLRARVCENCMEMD

T4: 细胞表面表达的DLL3 (H82 and LS174T-DLL3 cells) (human, UniProt Q9NYJ7 27-618)
T4 sequence (looked up): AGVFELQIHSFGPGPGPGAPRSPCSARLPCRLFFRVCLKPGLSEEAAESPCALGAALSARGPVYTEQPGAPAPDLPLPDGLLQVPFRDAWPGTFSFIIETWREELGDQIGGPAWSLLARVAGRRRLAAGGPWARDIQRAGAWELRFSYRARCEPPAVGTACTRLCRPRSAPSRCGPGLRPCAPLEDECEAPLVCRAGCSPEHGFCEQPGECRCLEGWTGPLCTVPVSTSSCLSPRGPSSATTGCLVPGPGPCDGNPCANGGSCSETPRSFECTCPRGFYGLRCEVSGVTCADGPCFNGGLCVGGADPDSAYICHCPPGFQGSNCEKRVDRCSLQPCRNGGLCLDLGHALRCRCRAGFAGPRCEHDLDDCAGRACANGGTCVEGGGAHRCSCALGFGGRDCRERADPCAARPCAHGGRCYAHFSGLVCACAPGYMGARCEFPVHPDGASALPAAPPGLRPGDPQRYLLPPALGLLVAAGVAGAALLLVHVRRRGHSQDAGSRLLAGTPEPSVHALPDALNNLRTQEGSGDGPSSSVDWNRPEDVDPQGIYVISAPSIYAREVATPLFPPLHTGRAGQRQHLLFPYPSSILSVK


Experiments:
人DLL3蛋白(His标签) [1] = target: T1, 人DLL3蛋白(His标签); assay: ELISA, coated human DLL3 protein 100 ng per well, anti-Fc HRP detection
人DLL3蛋白(His标签) [2] = target: T1, 人DLL3蛋白(His标签); assay: ELISA, coated human DLL3 protein
人CD3蛋白 = target: T2, 人CD3蛋白; assay: ELISA, coated human CD3 protein
[3] = target: T3, 效应细胞的CD3抗原 (CD3 on Jurkat-NFAT-CD3 …); assay: cell-based or functional assay
[4] = target: T4, 细胞表面表达的DLL3 (H82 and LS174T-DLL3 cells); assay: cell-based or functional assay

| EC50 (人DLL3蛋白(His标签) [1]) | EC50 (人DLL3蛋白(His标签) [2]) | EC50 (人CD3蛋白) | T cell activation (Jurkat-NFAT-CD3 luciferase reporter) with H82 target cells, EC50 [3] | T cell activation (Jurkat-NFAT-CD3 luciferase reporter) with LS174T-DLL3 target cells, EC50 [3] | T cell activation (Jurkat-NFAT-CD3 luciferase reporter) with H82 target cells, EC50 [4] | T cell activation (Jurkat-NFAT-CD3 luciferase reporter) with LS174T-DLL3 target cells, EC50 [4] | Binder | CTL EC50 (T cell dependent cytotoxicity on LS174T-DLL3 cells, human T cells, CCK8) [3] | CTL EC50 (T cell dependent cytotoxicity on LS174T-DLL3 cells, human T cells, CCK8) [4] |
| --- | --- | --- | --- | --- | --- | --- | --- | --- | --- |
| 0.0295 µg/mL |  |  |  |  |  |  | DLL3-1G2 mAb (antibody, human IgG1, kappa, V domains shown, Chimeric full IgG1: Fab of murine clone 1G2 fused to human IgG1 Fc; also called 抗DLL3单克隆抗体) VH: QVQLQQPGAELVRPGASVKLSCKASGYSFTSYWMNWVKQRPGQGLEWIGMIHPSDSETRLNQKFKDKATLTVDKSSSTAYMQLSSPTSEDSAVYYCARWDYYDYAWFAYWGQGTLVTVSA VL: DVLMTQTPLSLPVSLGDQASISCRSSQSIVHSNGDTYLEWYLQKPGQSPNLLIYKVSNRFSGVPDRFSGSGSGTDFTLKISRVEAEDLGVYHCFQGSHVPWTFGGGTKLEIKR |  |  |
|  | 0.378 µg/mL | 1.45 µg/mL | ~4020 ng/mL | ~5470 ng/mL | ~4020 ng/mL | ~5470 ng/mL | DLL3-1G2H1L1-M6MV1-1 (bispecific antibody, human IgG1, kappa, also called DLL3×CD3 BiTE) light: QVQLVQSGAELKKPGASVKLSCKASGYSFTSYWMNWVRQAPGQGLEWMGMIHPSDSETRLNQKFKDRVTLTVDKSSSTAYMELSSLTSEDTAVYYCARWDYYDYAWFAYWGQGTLVTVSSGGGGSGGGGSGGGGSDVVMTQTPLSLPVTLGQPASISCRSSQSIVHSNGDTYLEWYLQKPGQSPQLLIYKVSNRFSGVPDRFSGSGSGTDFTLKISRVEAEDVGVYYCFQGSHVPWTFGQGTKVEIKGSGGGGSGGGGSEIVVTQSPATLSVSPGERATLSCRSSTGAVTTSNYANWVQQKPGQAPRGLIGGANKRAPGVPARFSGSLSGDEATLTISSLQSEDFAVYYCALWYSNLWVFGQGTKLEIKRTVAAPSVFIFPPSDEQLKSGTASVVCLLNNFYPREAKVQWKVDNALQSGNSQESVTEQDSKDSTYSLSSTLTLSKADYEKHKVYACEVTHQGLSSPVTKSFNRGECGGSGSCPPCPAPEAAGAPSVFLFPPKPKDTLMISRTPEVTCVVVDVSHEDPEVKFNWYVDGVEVHNAKTKPREEQYNSTYRVVSVLTVLHQDWLNGKEYKCKVSNKALGAPIEKTISKAKGQPREPQVYTLPPSRDELTKNQVSLLCLVKGFYPSDIAVEWESNGQPENNYKTTPPVLDSDGSFFLHSKLTVDKSRWQQGNVFSCSVMHEALHNHYTQKSLSLSPG heavy: EVQLVESGGGLVQPGGSLRLSCAASGFTFNTYAMNWVRQAPGKGLEWVARIRSKYNNYATYYADSVKGRFTISRDDSKNTLYLQMNSLRAEDTAVYYCARHGNFGSSYVSYFAYWGQGTTVTVSSASTKGPSVFPLAPSSKSTSGGTAALGCLVKDYFPEPVTVSWNSGALTSGVHTFPAVLQSSGLYSLSSVVTVPSSSLGTQTYICNVNHKPSNTKVDKKVEPKSCDKTHTCPPCPAPEAAGAPSVFLFPPKPKDTLMISRTPEVTCVVVDVSHEDPEVKFNWYVDGVEVHNAKTKPREEQYNSTYRVVSVLTVLHQDWLNGKEYKCKVSNKALGAPIEKTISKAKGQPREPQVYTLPPSRDELTKNQVSLLCLVKGFYPSDIAVEWESNGQPENNYKTTPPVLDSDGSFFLHSKLTVDKSRWQQGNVFSCSVMHEALHNHYTQKSLSLSPG | 305 ng/mL | 305 ng/mL |
|  | 0.267 µg/mL | 0.892 µg/mL | ~1970 ng/mL | ~2700 ng/mL | ~1970 ng/mL | ~2700 ng/mL | DLL3-1G2H2L1-M6MV1-1 (bispecific antibody, human IgG1, kappa, also called DLL3×CD3 BiTE) light: QVQLVQSGAELKRPGASVKLSCKASGYSFTSYWMNWVRQAPGQGLEWIGMIHPSDSETRLNQKFKDKATLTVDKSSSTAYMELSSLTSEDSAVYYCARWDYYDYAWFAYWGQGTLVTVSSGGGGSGGGGSGGGGSDVVMTQTPLSLPVTLGQPASISCRSSQSIVHSNGDTYLEWYLQKPGQSPQLLIYKVSNRFSGVPDRFSGSGSGTDFTLKISRVEAEDVGVYYCFQGSHVPWTFGQGTKVEIKGSGGGGSGGGGSEIVVTQSPATLSVSPGERATLSCRSSTGAVTTSNYANWVQQKPGQAPRGLIGGANKRAPGVPARFSGSLSGDEATLTISSLQSEDFAVYYCALWYSNLWVFGQGTKLEIKRTVAAPSVFIFPPSDEQLKSGTASVVCLLNNFYPREAKVQWKVDNALQSGNSQESVTEQDSKDSTYSLSSTLTLSKADYEKHKVYACEVTHQGLSSPVTKSFNRGECGGSGSCPPCPAPEAAGAPSVFLFPPKPKDTLMISRTPEVTCVVVDVSHEDPEVKFNWYVDGVEVHNAKTKPREEQYNSTYRVVSVLTVLHQDWLNGKEYKCKVSNKALGAPIEKTISKAKGQPREPQVYTLPPSRDELTKNQVSLLCLVKGFYPSDIAVEWESNGQPENNYKTTPPVLDSDGSFFLHSKLTVDKSRWQQGNVFSCSVMHEALHNHYTQKSLSLSPG heavy: EVQLVESGGGLVQPGGSLRLSCAASGFTFNTYAMNWVRQAPGKGLEWVARIRSKYNNYATYYADSVKGRFTISRDDSKNTLYLQMNSLRAEDTAVYYCARHGNFGSSYVSYFAYWGQGTTVTVSSASTKGPSVFPLAPSSKSTSGGTAALGCLVKDYFPEPVTVSWNSGALTSGVHTFPAVLQSSGLYSLSSVVTVPSSSLGTQTYICNVNHKPSNTKVDKKVEPKSCDKTHTCPPCPAPEAAGAPSVFLFPPKPKDTLMISRTPEVTCVVVDVSHEDPEVKFNWYVDGVEVHNAKTKPREEQYNSTYRVVSVLTVLHQDWLNGKEYKCKVSNKALGAPIEKTISKAKGQPREPQVYTLPPSRDELTKNQVSLLCLVKGFYPSDIAVEWESNGQPENNYKTTPPVLDSDGSFFLHSKLTVDKSRWQQGNVFSCSVMHEALHNHYTQKSLSLSPG | 104 ng/mL | 104 ng/mL |
